The target in experiment [1] is T1, Human Alix recombinant construct ALIX(V+PRR), residues 362-760 (human, UniProt Q8WUM4 362-760).
T1 sequence (looked up): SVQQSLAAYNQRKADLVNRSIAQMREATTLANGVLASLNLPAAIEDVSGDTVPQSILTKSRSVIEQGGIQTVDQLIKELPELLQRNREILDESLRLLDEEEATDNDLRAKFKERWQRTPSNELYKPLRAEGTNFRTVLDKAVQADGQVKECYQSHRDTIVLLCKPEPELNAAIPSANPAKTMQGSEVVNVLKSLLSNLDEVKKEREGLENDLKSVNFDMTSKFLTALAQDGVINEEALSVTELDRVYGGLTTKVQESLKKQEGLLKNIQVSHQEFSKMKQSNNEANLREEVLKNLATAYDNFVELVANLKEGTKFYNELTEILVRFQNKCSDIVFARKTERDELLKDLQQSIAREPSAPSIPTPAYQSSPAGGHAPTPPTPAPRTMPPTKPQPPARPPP
The experiment is described as follows: pull-down.

Experiment [2] has as its target T1, Human Alix recombinant construct …. Briefly: NMR titration.

B1: Hck-SH3-GST (domain or fragment)
chain: not shown
For the molecule B1, the binding result in experiment [1] is reported as “binds”.

B2: Fyn(R96I)-SH3-GST (domain or fragment)
chain: not shown
Consider B2, for which the binding result in experiment [1] is given as “binds”.

B3: Fyn(R96I)-SH3, 6xHis C-terminal fusion (domain or fragment)
chain: not shown
Consider B3, for which the binding result in experiment [2] is “binds”.

These data come from paper PMC3378324 (Febs Letters, 2012).
